Biological target: His6-SUMO-NOT7 (human) (UniProt Q9UIV1)
Assay: mass photometry

Chain of His6-SUMO-NOT7 (human) (Q9UIV1 whole entry): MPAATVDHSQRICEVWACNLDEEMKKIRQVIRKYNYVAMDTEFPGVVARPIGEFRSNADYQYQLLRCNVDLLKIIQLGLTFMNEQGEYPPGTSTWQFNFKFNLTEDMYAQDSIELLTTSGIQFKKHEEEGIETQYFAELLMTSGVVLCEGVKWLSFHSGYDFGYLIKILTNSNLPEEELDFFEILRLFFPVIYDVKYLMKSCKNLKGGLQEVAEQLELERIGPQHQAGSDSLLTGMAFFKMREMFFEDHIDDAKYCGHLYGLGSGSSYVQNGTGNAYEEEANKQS

“His6-PieF (from UniProt A0AAN5PHN6) (natural protein)” was tested, and the stoichiometry N was 1.
